Each block holds one substance with its values, some of them ahead of it.
Legend:
[1] = target: gastrin releasing peptide receptor (GRP-R) (human) (UniProt P30550); assay: competition with 67Ga-AMBA, PC-3 cells
[2] = target: gastrin releasing peptide receptor (GRP-R) (human) (UniProt P30550); assay: competition with 177Lu-AMBA, PC-3 cells
[3] = target: gastrin releasing peptide receptor (GRP-R) (human) (UniProt P30550); assay: competition with 125I-universal ligand, receptor autoradiography on human tumour tissue
[4] = target: human neuromedin-B preferring receptor (NMB-R) (human) (UniProt P28336); assay: as above
[5] = target: gastrin releasing peptide receptor (GRP-R) (human) (UniProt P30550); assay: saturation binding, PC-3 cells, calculated from Bmax
[6] = target: gastrin releasing peptide receptor (GRP-R) (human) (UniProt P30550); assay: saturation binding of carrier-added radioligand, PC-3 cells, 4 C

gastrin releasing peptide receptor (GRP-R) (human), sequence (P30550 whole entry): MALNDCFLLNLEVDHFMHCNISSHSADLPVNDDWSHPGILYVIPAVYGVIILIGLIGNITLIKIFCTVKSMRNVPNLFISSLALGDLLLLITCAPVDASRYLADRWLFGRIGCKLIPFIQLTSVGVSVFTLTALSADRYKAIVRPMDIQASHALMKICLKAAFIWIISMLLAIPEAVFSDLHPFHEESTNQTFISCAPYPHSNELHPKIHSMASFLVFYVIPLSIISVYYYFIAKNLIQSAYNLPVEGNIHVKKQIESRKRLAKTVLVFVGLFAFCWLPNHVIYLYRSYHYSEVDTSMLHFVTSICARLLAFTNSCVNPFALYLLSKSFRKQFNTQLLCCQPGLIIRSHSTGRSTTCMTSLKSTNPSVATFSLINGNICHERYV
human neuromedin-B preferring receptor (NMB-R) (human), sequence (P28336 whole entry): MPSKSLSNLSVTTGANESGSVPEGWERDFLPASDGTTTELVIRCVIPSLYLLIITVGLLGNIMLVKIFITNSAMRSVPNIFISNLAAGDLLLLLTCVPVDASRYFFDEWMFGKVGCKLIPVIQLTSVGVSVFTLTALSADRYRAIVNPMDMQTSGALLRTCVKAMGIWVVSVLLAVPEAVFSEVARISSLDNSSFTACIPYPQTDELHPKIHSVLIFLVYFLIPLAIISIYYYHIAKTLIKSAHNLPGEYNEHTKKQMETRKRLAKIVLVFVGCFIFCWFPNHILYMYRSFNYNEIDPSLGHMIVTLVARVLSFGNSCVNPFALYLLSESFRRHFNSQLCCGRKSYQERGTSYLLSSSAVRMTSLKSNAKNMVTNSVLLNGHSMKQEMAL

EC50 [1]: 1000 pM | EC50 [2]: 1150 pM
Substance: Ga-AMBA (non-radioactive gallium complex of AMBA) (peptide)

IC50 [3]: 700 pM | IC50 [4]: 800 pM
Substance: Universal ligand ([DTyr^6, βAla^11, Phe^13, Nle^14]-BBN(6-14)) (peptide)

Receptors/cell (receptors/cell) [5]: 242000 | Binding capacity (Bmax) (fmoles/1 × 10^6 cells) [6]: 402 | Kd [6]: 460 pM
Substance: ^67Ga-AMBA (peptide)

Reference: patent publication US20130136691A1, “GASTRIN […] PEPTIDE COMPOUNDS” (priority 2008, published 2013)
